Assays:
[1] = system: K4 kissing-loop RNA reporter; assay: apparent KD of K4 kissing-loop reporter; higher = weaker reporter binding; details: Eterna round: R107;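 also: bound reporter read as fluorescence of individual clusters on recovered sequencing chips by microscopy, with normalized cluster intensities fitted with a binding model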
Experimental: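 RNA-MaP round R107: designed RNA switches with theophylline, tryptophan, arginine or FMN aptamers are transcribed on-chip within common flanks. They are titrated with a labelled K4 kissing-loop RNA reporter in RNA-MaP buffer (100 mM Tris pH 7.5, 80 mM KCl, 4 mM MgCl2), without ligand or with the indicated ligand. Median apparent KD per design.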

MS2 coat protein = assay: apparent KD of MS2 coat protein; designed switch direction (-1 OFF switch, 1 ON switch): -1; higher = weaker reporter binding
Outline: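 Designed RNA switches with common flanks were made on Illumina chips by stalled E. coli RNA polymerase. Titration with SNAP-549-labelled MS2 coat protein doubled from 0.7 or 1.5 nM up to 3 µM. Apparent KD is each design's median over clusters after curve-fitting normalised fluorescence.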

[2] = input ligand: theophylline 20 uM
[3] = input ligand: tryptophan 2.4 mM
[4] = input ligand: microRNA oligo, concentration not stated
[5] = Eterna round: R95, input ligand: microRNA oligo, concentration not stated
[6] = Eterna round: R95, input ligand: FMN 200 uM
[7] = Eterna round: R95, input ligand: none

Sequence | apparent KD of MS2 coat protein (MS2 coat protein; input ligand: FMN 200 uM) | apparent KD of MS2 coat protein (MS2 coat protein; input ligand: none) | apparent KD of MS2 coat protein (MS2 coat protein; [5]) | other results
AAAACCAAAAGCGAUACCAGCGCGGAGUGAUGUUCCGAGGAUCGGAGUGAUGUUCCGAAGCGCCCUUGGCAGCGCAAAAGCGCAA [Exclusion Theophylline B GF 7] |  |  |  | apparent KD of K4 kissing-loop reporter ([1]; input ligand: FMN 200 uM): 207 nM; apparent KD of K4 kissing-loop reporter ([1]; input ligand: arginine 13.2 mM): 139 nM; apparent KD of K4 kissing-loop reporter ([1]; input ligand: none): 171 nM; apparent KD of K4 kissing-loop reporter [1, 2]: 196 nM; apparent KD of K4 kissing-loop reporter [1, 3]: 164 nM
AAAAGAAGAAGUGAUACCAGACAAGCAGUGAUGUUGCGCCAAAGUGAGUGAUGUUCACCAGUCCCUUGGCAGCACAUGCCAAAAG [Same State Theophylline B GF 5] |  |  |  | apparent KD of K4 kissing-loop reporter ([1]; input ligand: FMN 200 uM): 520 nM; apparent KD of K4 kissing-loop reporter ([1]; input ligand: arginine 13.2 mM): 927 nM; apparent KD of K4 kissing-loop reporter ([1]; input ligand: none): 668 nM; apparent KD of K4 kissing-loop reporter [1, 2]: 839 nM; apparent KD of K4 kissing-loop reporter [1, 3]: 933 nM
AAAAUAAACCAGUGAUGUUGGUGUCUAGAUACCAGCGAUAAUAAUCGCCCUUGGCAGCUACGGACGUACAAAAUAAGUACGUCCU [MatMod 10 - Jieux - Same State - Theophylline A] |  |  |  | apparent KD of K4 kissing-loop reporter ([1]; input ligand: FMN 200 uM): 543 nM; apparent KD of K4 kissing-loop reporter ([1]; input ligand: arginine 13.2 mM): 375 nM; apparent KD of K4 kissing-loop reporter ([1]; input ligand: none): 454 nM; apparent KD of K4 kissing-loop reporter [1, 2]: 485 nM; apparent KD of K4 kissing-loop reporter [1, 3]: 460 nM
AAAAUAAACCAGUGAUGUUGGUGUGUAGAUACCAGCGACGAAAGUCGCCCUUGGCAGCUGUGGACGUACAAAAUAAGUACGUCCU [MatMod 23 - Jieux - Same State - Theophylline A] |  |  |  | apparent KD of K4 kissing-loop reporter ([1]; input ligand: FMN 200 uM): 315 nM; apparent KD of K4 kissing-loop reporter ([1]; input ligand: arginine 13.2 mM): 310 nM; apparent KD of K4 kissing-loop reporter ([1]; input ligand: none): 350 nM; apparent KD of K4 kissing-loop reporter [1, 2]: 325 nM; apparent KD of K4 kissing-loop reporter [1, 3]: 280 nM
UUUAUAUAUGAAGGAUAUACUUAACAUGAGGAUCACCCAUGUGGUGUUGUGAGUGAGUGAGUUUAGUAGAAGGUCAAUUCUUUU [JMF's solution 91] (Eterna round: R96, puzzle: Exclusion NG 2) | 731 nM | 362 nM |  | apparent KD of MS2 coat protein (MS2 coat protein; [4]): 335 nM
UUUAUGUCAGGAUAUACAUGAGGAUCACCCAUGUAUAUCUAAAAAUAUACAUGGGUAUGUAGAAGGGACCUCCU [Omei Ex3 Pseudoloop 2] (Eterna round: R97, puzzle: Exclusion 3) | 52.6 nM | 146 nM |  | 
UUUAUGUCAGGAUAUGAGUAGUAGAACAAUAGUACUACUACUCAGAAGGGACAUGAGGAUCACCCAUGUUCCUC [Fiskers Ex 4 Super stable 44 mod 20] (puzzle: Exclusion 4) |  |  | 16.7 nM | 
UUUAUGUCAGGAUAUGAGUAGUAGAACAAUAGUACUACUACUCAGAAGGGACAUGAGGAUCACCCAUGUUCUUC [Fiskers Ex 4 Super stable 44 mod 23] (puzzle: Exclusion 4) |  |  | 16.3 nM | 
UUUAUGUCAGGAUAUGAGUAGUAGAACAAUAGUACUACUACUCAGAAGGGACAUGAGGAUCACCCAUGUUUCUC [Fiskers Ex 4 Super stable 44 mod 24] (puzzle: Exclusion 4) |  |  | 22.6 nM | 
UUUAUGUCAGGAUAUGAUUAGAUCUACUUCGGUAGAUCUAAUCAGAAGGGACAUGAGGAUCACCCAUGUAGUUU [Ex4 - 3 - 13] (Eterna round: R96, puzzle: Exclusion 4) | 671 nM | 180 nM |  | apparent KD of MS2 coat protein (MS2 coat protein; [4]): 137 nM
UUUAUGUCAGGAUAUGAUUAGAUCUACUUCGGUAGAUCUAAUCAGAAGGGACAUGAGGAUCACCCAUGUAGUUU [Ex4 - 3 - 13] (puzzle: Exclusion 4) |  |  | 119 nM | 
UUUAUUUUGCAAGGAUAUGUUUAAUUUUAGUUUCCUUAAACAUGAGGAUCACCCAUGUUAUACUUACAGAAGGUGCAUAAUUUU [JR_ExcNG2_Sub036] (Eterna round: R96, puzzle: Exclusion NG 2) |  |  |  | apparent KD of MS2 coat protein (MS2 coat protein; [4]): 73.3 nM
UUUCGGCAUGUAGGAUAUGGAUCCGAUUAGGAUUUAGAAGGACAUGAGGAUCACCCAUGUGCAUUUAAUUGGUCAUUACCGUUU [EXclNG1-LROPPY08] (Eterna round: R96, puzzle: Exclusion NG 1) |  |  |  | apparent KD of MS2 coat protein (MS2 coat protein; [4]): 41.9 nM
UUUCGGCAUGUAGGAUAUGGGUCCGAUUAGGAUUUAGAAGGACAUGAGGAUCACCCAUGUGCAUUUAAUUGGUCAUUACCGUUU [EXclNG1-LROPPY09] (Eterna round: R96, puzzle: Exclusion NG 1) | 86.7 nM | 66 nM |  | apparent KD of MS2 coat protein (MS2 coat protein; [4]): 47.8 nM
UUUGAAUAAGUGAGGAUAUACUGUUAGUAAUGAUUGUAGAAGGUACAUGAGGAUCACCCAUGUUUAUUAUUUAU [JR_BME4_Sub039] (puzzle: Brourd's mod of Exclusion 4) |  |  | 20.7 nM | 
UUUGACUAAGGAUAUCCUUUUGACCACAUGAGGAUCACCCAUGUAUUCCACAAGUGCGAAGGAGAAGGUGGGAAGG [Eternabot (L2) Solution 28] (Eterna round: R97, puzzle: Exclusion 5) | 65.6 nM | 56.1 nM |  | 
UUUGCAAGCUAUAGAUCCCACAUGAGGAUCACCCAUGUUGCUGCCGUGAGGUAGCAUUUAACUAUUGCUCGUCUUAU [JL TOV1 3.51] (Eterna round: R97, puzzle: Sensor, turn-off variant 1) | 190 nM | 245 nM |  | 
UUUGCAAGCUUAUGAUCCCACAUGAGGAUCACCCAUGUUGCUGCCGGUGACGGUAGCAUAACAUAUGCUCGUCUUAU [JL TOV1 3.63] (Eterna round: R97, puzzle: Sensor, turn-off variant 1) | 791 nM | 1170 nM |  | 

Sequence | apparent KD of MS2 coat protein (MS2 coat protein; input ligand: FMN 200 uM) | apparent KD of MS2 coat protein (MS2 coat protein; input ligand: none) | apparent KD of MS2 coat protein (MS2 coat protein; [5]) | other results
UUUGUUUAUGUGAGGAUAUACUGUUUGUUUUGUUUGUAGAAGGUACAUGAGGAUCACCCAUGUUUUGUUUUUUU [JR_BME4_Sub033] (puzzle: Brourd's mod of Exclusion 4) |  |  | 21 nM | 
UUUGUUUUGCAAGGAUAUGUUUAAUUUUAUUUUCCUUACACAUGAGGAUCACCCAUGUUAUACUUACAGAAGGUGCGUAAUUUG [Excl-NG2-LRO04] (Eterna round: R96, puzzle: Exclusion NG 2) |  |  |  | apparent KD of MS2 coat protein (MS2 coat protein; [4]): 165 nM
UUUUAACAUGAGGAUCACCCAUGUGAGGAUAUCGAAAUUUAUAUUAAUAUUAAUUAUACGAGAAGGCACAUUUU [JMF 30] (puzzle: Exclusion 1) |  |  | 84 nM | 
UUUUAACAUGAGGAUCACCCAUGUGAGGAUAUCGAAAUUUAUAUUUAUAUUAAUAAUACGAGAAGGCACAUUUU [JMF 78] (puzzle: Exclusion 1) |  |  | 57 nM | 
UUUUAACAUGAGGAUCACCCAUGUGAGGAUAUCGAAAUUUAUAUUUAUAUUUAUAUAUCGAGAAGGCACAUUUU [JMF 96] (puzzle: Exclusion 1) |  |  | 118 nM | 
UUUUAGAGAGGAUAUACAUUUUUUUAUUUAUUUAUAAUAUUACAUGAGGAUCACCCAUGUAGAAGGCUCAUUUU [My Design] (puzzle: Exclusion 2) |  |  | 25.8 nM | 
UUUUAGUCAGGAUAUACAUGAGGAUCACCCAUGUAAAAUUUUAAUUUAAUUUUAAGGUGUAGAAGGGACAAUCC [Ex3 #12] (Eterna round: R97, puzzle: Exclusion 3) | 43.1 nM | 38.9 nM |  | 
UUUUAGUGAGGAUAUACAUUUUUUUAAUUAUUUAUAAUAUUACAUGAGGAUCACCCAUGUAGAAGGCACAUUUU [My Design] (puzzle: Exclusion 2) |  |  | 27.4 nM | 
UUUUCAUAUGAAGGAUAUACUUAACAUGAGGAUCACCCAUGUGGUGUUGUGAGUGAGUGAGUUUAGUAGAAGGUCAAUUCUUUU [JMF's solution 90] (Eterna round: R96, puzzle: Exclusion NG 2) | 613 nM | 351 nM |  | apparent KD of MS2 coat protein (MS2 coat protein; [4]): 277 nM
UUUUGACAAGCGAGAUCCUACAUGAGGAUCACCCAUGUUGACCAUGGUUUCCAUGGUCUUUUUGCUCGUCUUGUGUG [jl TITIN mod 4] (Eterna round: R97, puzzle: Sensor, turn-off variant 1) | 21.5 nM | 21.8 nM |  | 
UUUUGUCGUGACAUGGGUGACAUGAGGAUCACCCAUGUUACAAGCUUGUUGCUCGUCUUAUAAUUAACCCAUGUCAC [LRO Sensor-off var1-17 mod of Stov1-13-A1 by Brourd] (Eterna round: R97, puzzle: Sensor, turn-off variant 1) | 17.6 nM | 16.1 nM |  | 
UUUUUAUAUGAAGGAUAUACUUAACAUGAGGAUCACCCAUGUGGUGUUGUGAGUGAGUGAGUUUAGUAGAAGGUCAAAUAUUUU [JMF's solution 7] (Eterna round: R96, puzzle: Exclusion NG 2) | 583 nM | 270 nM |  | apparent KD of MS2 coat protein (MS2 coat protein; [4]): 194 nM
UUUUUCGAACAAGCAUCGAACAUGAGGAUCACCCAUGUAGGUAGAUUUGAGUAGGUAUGGAAGUAAGCUCGUCUUAU [JR_SV3TOV1_Sub080] (puzzle: Sensor v3, turn-off variant 1) |  |  | 107 nM | apparent KD of MS2 coat protein (MS2 coat protein; [6]): 39.4 nM; apparent KD of MS2 coat protein (MS2 coat protein; [7]): 53.9 nM
UUUUUCGAACAAGCUACGUACAUGAGGAUCACCCAUGUCGGUAGAUUUGAGUAGGUUUGGAUGGAAGCUCGUCUUAU [JR_SV3TOV1_Sub085] (puzzle: Sensor v3, turn-off variant 1) |  |  | 28.2 nM | apparent KD of MS2 coat protein (MS2 coat protein; [6]): 19.4 nM; apparent KD of MS2 coat protein (MS2 coat protein; [7]): 19.5 nM
UUUUUGUGAGGAUAUGCAAUAUCUUCUAUUUAUUAUUAAUUGCAGAAGGCACAUGAGGAUCACCCAUGUAUUUU [Ex4 - 3 - 36] (puzzle: Exclusion 4) |  |  | 20.5 nM | 
UUUUUUGGGCAAGGAUAUCCUGUGCGGUUCCGGCUCGUGUCUGUCACAUGAGGAUCACCCAUGUGGGAGAAGGUGCCUGCGGUU [Design 84] (Eterna round: R96, puzzle: Exclusion NG 2) | 15.1 nM | 15.4 nM |  | apparent KD of MS2 coat protein (MS2 coat protein; [4]): 10.8 nM
UUUUUUGGGCAAGGAUAUCCUGUGCGGUUCCGGCUCGUGUCUGUUACAUGAGGAUCACCCAUGUGGGAGAAGGUGCCUGCGGUU [Design 85] (Eterna round: R96, puzzle: Exclusion NG 2) | 172 nM | 34.9 nM |  | apparent KD of MS2 coat protein (MS2 coat protein; [4]): 31.1 nM
